Results on eight molecules are retold here after patent US20040170990A1, “Intracellular nucleic acid inhibitors of small guanine nucleotide exchange factors” (published 2004).

The target in series [1] is chimera ARF-1 protein fused at the carboxy terminus to the constant CH1 and CH2 domains of human IgG immunoglobulin (human) (UniProt P84077). The series is described as follows: cell-based or functional assay.
The target of series [2] is T1, cytohesin-1 (full-length) (UniProt Q15438).
T1 sequence: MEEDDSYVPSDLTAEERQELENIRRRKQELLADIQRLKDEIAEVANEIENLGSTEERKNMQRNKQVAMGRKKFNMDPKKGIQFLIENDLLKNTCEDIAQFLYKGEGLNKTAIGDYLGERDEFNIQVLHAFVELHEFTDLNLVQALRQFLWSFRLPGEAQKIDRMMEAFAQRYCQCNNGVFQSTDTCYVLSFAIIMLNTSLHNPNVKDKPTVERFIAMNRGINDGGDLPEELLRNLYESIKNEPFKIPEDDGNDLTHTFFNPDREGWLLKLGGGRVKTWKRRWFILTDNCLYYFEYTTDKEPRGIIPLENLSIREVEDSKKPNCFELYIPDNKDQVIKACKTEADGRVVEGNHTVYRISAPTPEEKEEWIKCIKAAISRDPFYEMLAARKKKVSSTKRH
The series is described as follows: filter. To be noted: non-selected library; 3 mM MgCl2, 37 C.

Series [3] addresses T2, cytohesin-1 (full-length) (UniProt Q15438 Q15438:1-398). The series is described as follows: filter; 3 mM MgCl2, 37 C. The following applies: tags: 6xHis (cytohesin-1-His6), E. coli, Ni-NTA. How it is done:
(§1) Natl. Acad. Sci. USA 90 (1993), 11227-11231). […] Of the analysed sequences the clone M69 bound cytohesin-1-His6 with a dissociation constant of 16 nM (see Table 2). As controls the same binding experiments were carried out with E. coli lysates which were treated similarly to the cytohesin-1 expressed in E. coli.
(§2) In the next step the binding site of the aptamer M69 on cytohesin-1 was delimited in more detail. For this purpose filter binding studies were carried out using subdomain constructs of cytohesin-1. The PH domain and the Sec7 domain of cytohesin-1 were overexpressed as 6×His-Tag proteins (PH-His6 and C1-Sec7-His6) in E. coli and purified as described for cytohesin-1-His6. The synthetic polybasic C-peptide was obtained from the company TopLab (Munich). The Sec7 domain of the large Brefeldin A-sensitive ARF-GEF's Gea2 (Gea2-Sec7) was made available as 6×His-Tag protein by Cathy Jackson (Departement de Biologie Cellulaire et Moleculaire, CEA/Saclay, France). […] On the other hand, no interaction with the PH domain or the Sec7 domain of Gea2 could be detected (see Table 2). […] The aptamer M5 on the other hand recognises both the Sec7 domain of cytohesin-1 and also of Gea2 with approximately the same affinity. The PH domain of cytohesin-1 is recognised an order of magnitude less well. The aptamer M56 however binds best to the full-length protein cytohesin-1 and barely to the Sec7 domain of Gea2. Since both the Sec7 domain and also the PH domain of cytohesin-1 are bound with somewhat reduced affinities compared with the full-length protein, the aptamer appears to recognise a binding site on cytosin-1 which is composed of both domains.

In series [4] the target is T3, cytohesin-1 Sec7 domain (C1-Sec7) (UniProt Q15438 Q15438:73-202).
T3 chain: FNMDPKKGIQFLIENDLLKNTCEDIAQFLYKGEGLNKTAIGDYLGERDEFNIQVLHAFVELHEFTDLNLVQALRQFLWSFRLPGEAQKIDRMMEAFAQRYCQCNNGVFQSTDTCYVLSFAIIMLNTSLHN
As to the kind of experiment: filter; 3 mM MgCl2, 37 C. To be noted: tags: 6xHis, E. coli. Here is the method: as §1, §2

Series [5] has as its target T4, cytohesin-1 PH domain (C1-PH) (UniProt Q15438 Q15438:260-377).
T4 chain: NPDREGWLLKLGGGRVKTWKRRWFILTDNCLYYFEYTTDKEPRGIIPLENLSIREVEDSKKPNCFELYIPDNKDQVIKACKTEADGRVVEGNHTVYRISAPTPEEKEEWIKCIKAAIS
As to the kind of experiment: filter; no measurable interaction. The following applies: tags: 6xHis, E. coli. How it is done: as §1
as §2, with “The aptamer M56 however binds best to the full-length protein cytohesin-1 and barely to the Sec7 domain of Gea2. Since both the Sec7 domain and also the PH domain of cytohesin-1 are bound with somewhat reduced affinities compared with the full-length protein, the aptamer appears to recognise a binding site on cytosin-1 which is composed of both domains.” left out

For series [6], the target named is T5, Gea2 Sec7 domain (Gea2-Sec7, G2-Sec7) (UniProt P39993 P39993:570-714).
T5 chain: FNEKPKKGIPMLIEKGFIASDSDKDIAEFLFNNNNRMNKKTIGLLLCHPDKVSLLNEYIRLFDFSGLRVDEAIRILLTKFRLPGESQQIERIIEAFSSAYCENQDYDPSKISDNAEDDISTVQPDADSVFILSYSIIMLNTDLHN
The series is described as follows: filter; no measurable interaction. The following applies: tags: 6xHis, provided by Cathy Jackson. Here is the method:
as §1
as §2, with “The aptamer M56 however binds best to the full-length protein cytohesin-1 and barely to the Sec7 domain of Gea2. Since both the Sec7 domain and also the PH domain of cytohesin-1 are bound with somewhat reduced affinities compared with the full-length protein, the aptamer appears to recognise a binding site on cytosin-1 which is composed of both domains.” left out

The target of series [7] is T2, cytohesin-1 (full-length). The series is described as follows: filter; 3 mM MgCl2, 37 C. The following applies: tags: 6xHis (cytohesin-1-His6), E. coli, Ni-NTA. Here is the method:
Filter binding experiments were carried out in order to test whether the selected aptamer sequences can also recognise native cytohesin-1 in solution. The interaction analyses are described in detail in the literature. (Jellinek et al., Proc. Natl. Acad. Sci. USA 90 (1993), 11227-11231; Jellinek et al., Biochemistry 33 (1994), 10450-10456).
Increasing concentrations of cytohesin-1-His6 (0.1 nM to 500 nM) were incubated with the aptamers according to the invention (1.0 nM) radioactively labelled with ³²P at the 5′ end for 1 h at 37° C. in selection buffer. The RNA/cytohesin-1-His6 complexes were then filtered over nitrocellulose acetate mixed membranes (HAWP 0.45 μm, Millipore). The filter was then rinsed with 5 ml of washing buffer (3 mM MgCl₂, 137 mM NaCl, 2.7 mM KCl, 4.3 mM Na₂HPO₄.7H₂O, 1.4 mM KH₂PO₄). Before the experiment the filters were pretreated for 10 minutes with 40 mM 6-aminocaproic acid and 20% ethanol. Radioactive RNA retained on the filters was quantified by analysis using a phosphor imager (Storm 860, Amersham). The dissociation constant (Kd) was determined as described by Jellinek et al. (Jellinek et al., Proc. Natl. Acad. Sci. USA 90 (1993), 11227-11231). […] Of the analysed sequences the clone M69 bound cytohesin-1-His6 with a dissociation constant of 16 nM (see Table 2). […]
The source holds these as a separate data set.

Series [8] has as its target T4, cytohesin-1 PH domain (C1-PH). As to the kind of experiment: filter; 3 mM MgCl2, 37 C. The following applies: tags: 6xHis, E. coli; label: 5'-32P. How it is done:
as §1, §2

Series [9] has as its target T5, Gea2 Sec7 domain (Gea2-Sec7, G2-Sec7). As to the kind of experiment: filter; 3 mM MgCl2, 37 C. To be noted: tags: 6xHis, provided by Cathy Jackson; label: 5'-32P. How it is done:
as §1, §2

In series [10] the target is T2, cytohesin-1 (full-length). As to the kind of experiment: non-binding negative control. The following applies: tags: 6xHis (cytohesin-1-His6), E. coli, Ni-NTA.
Series [11] addresses T2, cytohesin-1 (full-length). As to the kind of experiment: filter; 3 mM MgCl2, PBS-type buffer pH 7.3, 37 C. To be noted: tags: 6xHis (cytohesin-1-His6), E. coli, Ni-NTA; label: 5'-32P. Here is the method: Increasing concentrations of cytohesin-1-His6 (0.1 nM to 500 nM) were incubated with the aptamers according to the invention (1.0 nM) radioactively labelled with ³²P at the 5′ end for 1 h at 37° C. in selection buffer. The RNA/cytohesin-1-His6 complexes were then filtered over nitrocellulose acetate mixed membranes (HAWP 0.45 μm, Millipore). The filter was then rinsed with 5 ml of washing buffer (3 mM MgCl₂, 137 mM NaCl, 2.7 mM KCl, 4.3 mM Na₂HPO₄.7H₂O, 1.4 mM KH₂PO₄). Before the experiment the filters were pretreated for 10 minutes with 40 mM 6-aminocaproic acid and 20% ethanol. Radioactive RNA retained on the filters was quantified by analysis using a phosphor imager (Storm 860, Amersham). The dissociation constant (Kd) was determined as described by Jellinek et al. (Jellinek et al., Proc. Natl. Acad. Sci. USA 90 (1993), 11227-11231). […] Of the analysed sequences the clone M69 bound cytohesin-1-His6 with a dissociation constant of 16 nM (see Table 2). As controls the same binding experiments were carried out with E. coli lysates which were treated similarly to the cytohesin-1 expressed in E. coli.

In series [12] the target is T5, Gea2 Sec7 domain (Gea2-Sec7, G2-Sec7). The series is described as follows: filter; barely binds; 3 mM MgCl2, 37 C. To be noted: tags: 6xHis, provided by Cathy Jackson; label: 5'-32P. Here is the method: The dissociation constant (Kd) was determined as described by Jellinek et al. (Jellinek et al., Proc. Natl. Acad. Sci. USA 90 (1993), 11227-11231). […] Of the analysed sequences the clone M69 bound cytohesin-1-His6 with a dissociation constant of 16 nM (see Table 2). As controls the same binding experiments were carried out with E. coli lysates which were treated similarly to the cytohesin-1 expressed in E. coli.
as §2, with “The aptamer M56 however binds best to the full-length protein cytohesin-1 and barely to the Sec7 domain of Gea2. Since both the Sec7 domain and also the PH domain of cytohesin-1 are bound with somewhat reduced affinities compared with the full-length protein, the aptamer appears to recognise a binding site on cytosin-1 which is composed of both domains.” left out

Chain of chimera ARF-1 protein fused at the carboxy terminus to the constant CH1 and CH2 domains of human IgG immunoglobulin (human) (P84077 whole entry, stated change not applied, the tested form may be a part): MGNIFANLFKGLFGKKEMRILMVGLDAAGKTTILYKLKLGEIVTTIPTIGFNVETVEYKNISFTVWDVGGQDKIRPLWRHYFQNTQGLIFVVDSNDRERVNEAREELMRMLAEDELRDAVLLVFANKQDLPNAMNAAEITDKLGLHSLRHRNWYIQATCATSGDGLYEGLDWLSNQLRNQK

In [1], “cytohesin-1 (full-length protein) (from UniProt Q15438 1-398) (enzyme)” displayed a binding of [gamma-35S]-GTP to ARF-1 (GDP/GTP exchange assay) of 10 fold.

For the molecule “CUAUAGGGAGAGACAAGCUUGGGUCNNNNNNNNNNNNNNNNNNNNNNNNNNNNNNNNNNNNNNNNAGAAGAGAAAGAGAAGUUAAUUAAGGAUCCUCAG [non-selected N40 RNA library]”, the Kd (as a rule, the free concentration of one partner at which half of the binding sites on the other are occupied at equilibrium, for simple one-to-one binding) in series [2] is over 4 µM.

B1: M69 (ssRNA)
RNA: GGGAGAGACAAGCUUGGGUCUAUUAUGCCUUUAGCUAGCGCAUUCUGUGGGGUGGGUGGAAGAAGAGAAAGAGAAGUUAAUUAAGGAUCCUCAG
Take B1: the Kd in [3] and in [4] was 16 nM throughout. Besides, the binding result in series [5] and in series [6] was “no binding” each time.

B2: M41 (ssRNA)
RNA: GGGAGAGACAAGCUUGGGUCGUCAUCCGUGUUUUGUCAUGUUUUGAUGGGGUUUGGGGUGUGAUAAGAGAAAGAGAAGUUAAUUAAGGAUCCUCAG
Consider B2, for which the binding result in [7] is recorded as “binds”.

B3: M5 (ssRNA)
RNA: GGGAGAGACAAGCUUGGGUCGGGUUCGCUAAGUUGGUCUACCCCUCUCGAAUAUCCGUUAAGAAGAGAAAGAGAAGUUAAUUAAGGAUCCUCAG
Take B3: the Kd in [3] (label: 5'-32P) is 40 nM; in series [4] (label: 5'-32P), 36 nM; in series [8], 480 nM; in series [9], 48 nM.

B4: M3 (ssRNA)
RNA: GGGAGAGACAAGCUUGGGUCAGGGAGGGUAGGGAUUUGGUUGUCCCAUGUUCGCAGCCGUAGAAGAGAAAGAGAAGUUAAUUAAGGAUCCUCAG
In the case of B4, the binding result in [7] is on record as “binds”.

B5: ML1 (ssRNA)
RNA: GGGAGAGACAAGCUUGGGUCGUGUCUGUGUAGAGGACAGGGCGAGAGUCUGAUUGUCUGCAGAAGAGAAAGAGAAGUUAAUUAAGGAUCCUCAG
On to B5, for which, in series [10], the binding result is recorded as “no binding”.

B6: M56 (ssRNA)
RNA: GGGAGAGACAAGCUUGGGUCUGUUGUUGGACCAGUGUUAUUUUACGCGAUUGUGCGGUUGUGAAGAGAAAGAGAAGUUAAUUAAGGAUCCUCAG
Regarding B6, the Kd was 280 nM in [4] (label: 5'-32P), 150 nM in series [8], 5 nM in series [11] and over 1000 nM in [12].
